Test results reported in US20260042834A1, “ANTI-CORTICOTROPIN-RELEASING HORMONE ANTIBODIES AND POLYCYSTIC OVARY SYNDROME” (HBM ALPHA THERAPEUTICS, INC., priority 2022, published 2026).
Substitutions are numbered along the chain they refer to. Where two headings read alike, the source gives them in different places. Each block holds one molecule with its values, some of them ahead of it.

Key:
[1] = test system: mouse CRHR2; assay: CRH-induced luciferase reporter blocking assay, CHO-CRE-mCRHR2 cells; type: cell-based
Method: To create CHO-CRE-hCRHR1, -hCRHR2, -mCRHR1, and -mCRHR2 reporter cell lines, pcDNA3.1-hCRHR1, -hCRHR2, -mCRHR1, and -mCRHR2 were introduced into CHO-CRE cells established above by electroporation as described above. Selection antibiotics hygromycin at 500 μg/ml and G418 at 1,000 μg/ml were employed. Individual established stable cell lines were characterized by both CRH and forskolin stimulation. […]
(§1) Cells were digested by trypsin-EDTA (Life technologies, Cat #:12604-013), centrifuged at 1,000 rpm for 5 min, resuspended in growth medium, counted using a cell counter, seeded at a concentration of 5,000 cells per 100 μl in 96-well flat plates, and incubated overnight. 50 μl of 4× serially diluted antibodies was added (8 points, 1/4 diluted by growth medium) to plates containing CHO-CRE-hCRHR1 cells, and 50 μl of 4×CRH (4× is 2 nM, final is 0.5 nM) was added. Similarly, 4×CRH (4× is 0.4 nM, final is 0.1 nM) was added to CHO-CRE-hCRHR2 cells and CHO-CRE-mCRHR1 cells, and 4×CRH (4× is 20 nM, final is 5 nM) was added to CHO-CRE-mCRHR2 cells. Next, plates were incubated 4-6 hours at 37° C. in a CO2 incubator. 60 μl of culture medium was removed, to which was added 60 μl of Bio-Glo luciferase, followed by incubation for 10 min at RT. Plates were read in a luciferase plate reader (EnVision, PerkinElmer).

[2] = test system: human CRHR2; assay: CRH-induced luciferase reporter blocking assay, CHO-CRE-hCRHR2 cells; type: cell-based
Method: To create CHO-CRE-hCRHR1, -hCRHR2, -mCRHR1, and -mCRHR2 reporter cell lines, pcDNA3.1-hCRHR1, -hCRHR2, -mCRHR1, and -mCRHR2 were introduced into CHO-CRE cells established above by electroporation as described above. Selection antibiotics hygromycin at 500 μg/ml and G418 at 1,000 μg/ml were employed. Individual established stable cell lines were characterized by both CRH and forskolin stimulation.
Activated GPCR proteins increase production of the intracellular cAMP. CHO-CRE-human CRHR1 stable clone 11 was generated by introduction of pcDNA3.1-human CRHR1 under the selection of G418 and hygromycin. Human CRHR1 expression in CHO-CRE-hCRHR1 Clone 11 was confirmed by flow cytometry (data not shown). To further validate that the cell line was functional, CHO-CRE-hCRHR1 Clone 11 cells were treated with forskolin and CRH peptide. […] Subsequently CHO-CRE-hCRHR2 Clone 32, -mCRHR1 Clone 22, and -mCRHR2 Clone 8 cell lines were established using similar methodology and validated with CRH treatment (data not shown).
Blocking CRHR1 by small molecules or neutralization of CRH peptide can reduce luciferase expression if the CRH-CRHR1 system works in CHO-CRE-hCRHR1 cells. Antalarmin, a small molecule CRHR1 antagonist, blocked CRH-mediated luciferase expression in CHO-CRE-hCRHR1 Clone 11 (data not shown). Furthermore, sheep anti-CRH polyclonal antibody reduced CRH-mediated luciferase expression in these cells (data not shown). Likewise, sheep anti-CRH polyclonal antibody blocked CRH-mediated luciferase expression in CHO-CRE-hCRHR2, CHO-CRE-mCRHR1, and CHO-CRE-mCRHR2 cells (data not shown).
as §1

[3] = target: T1, biotinylated CRH (Homo sapiens, UniProt P06850); assay: Affinity determination with Octet; type: binding
T1 construct: purchased GL Biochem 784751
T1 sequence (P06850 154-194): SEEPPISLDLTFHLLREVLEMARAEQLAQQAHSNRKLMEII
Method: Octet® Red 96e was used for affinity measurement. Octet® running buffer was prepared by diluting kinetics buffer 10× (Fortebio, Cat #18-1105) in PBS according to the manufacturer's instructions. Two columns of SA sensors (Fortebio, Cat #18-5019) were hydrated in running buffer for 10 mins, one for ligand capturing and the other for reference. Antibodies were 2-fold diluted and added into a 96-well plate. 30 nM biotinylated CRH (GL Biochem, Cat #784751) was captured by the first column of SA sensors for 20 seconds, while reference sensors were dipped into buffer wells. After a 60-second baseline step, sensors were dipped into analyte and buffer wells successively, with the association and dissociation time of 180 seconds and 800 seconds, respectively. Sensors were regenerated in glycine pH1.5 (Cytiva, Cat #BR-1003-54) before the next cycle. […] Signals of reference wells and reference sensors were subtracted by selecting “Double reference” before data fitting.

[4] = target: T2, N-terminal region plus central region, central region only, central region plus C-terminal region of CRH (Homo sapiens, UniProt P06850); assay: ELISA determining the binding region of CRH; settings: dash = no binding
T2 construct: N-terminal region plus the central region (CT biotin), the central region only (NT biotin or CT biotin)
Method: Streptavidin (Thermo, Cat: 21125) was diluted in PBS to a concentration of 2 μg/ml. 100 μl of diluted streptavidin was added per well to ELISA microplates, and the plates were incubated overnight at 4° C. Plates were blocked with ELISA blocking solution (containing 2% w/v BSA, 0.05% (v/v) Tween-20, pH 7.4 PBS buffer) at 37° C. for 1 hour, and then incubated with 1 μg/mL N-terminal region plus the central region (CT biotin), the central region only (NT biotin or CT biotin), or the central region plus C-terminal region (NT biotin) of CRH for 1 hour at 37° C. Plates were then washed and incubated with diluted anti-CRH antibody (Ab) at 15 μg/ml (100 nM, 10 diluted, 8 points) for 1 hour at 37° C. Subsequently, plates were washed and incubated with HRP-conjugated goat anti-human IgG (H+L) antibody (Jackson, Cat: 109-035-088) at 37° C. for 1 hour. 100 μL of 3,3′,5,5′-tetramethylbenzidine (TMB) substrate (Biopanda, Cat: TMB-S-003) was added, and the plates were incubated at room temperature for 15 minutes. 100 μL of ELISA stopping solution (Solarbio, Cat #: C1058) was added to terminate the reaction, and the optical density at 450 nm (OD450 nm) was determined by an ELISA plate reader (Molecular Devices, Spectra max 384 plus).

[5] = CHO-CRE-hCRHR2 cells, 0.1 nM CRH

IC50 ([1]; CHO-CRE-mCRHR2 cells, 5 nM CRH): 0.849 nM | IC50 ([1]; Table 9, mCrhr2): 2.41 nM | IC50 [2, 5]: 0.244 nM | IC50 ([2]; Table 9, hCRHR2): ~2.18 nM | kdis [3]: 2.18e-07 s⁻¹ | kon [3]: 1.01e+06 M⁻¹ s⁻¹
B1: PR302341: Series 10 anti-CRH mAb from immunized wildtype mice; VH SEQ ID NO: 280, VL SEQ ID NO: 339 (antibody, V domains shown)
VH: EVQLQQSGPELVKPGASVKMSCKASGYTFTDYFMKWVKQSHGESLEWIGVINPNNGDIFYNQKFKGKATLTVDKSSSTAFMQLNSLTSEDSAVYSCARGTDRALFAYWGQGTLVAVSA
VL: DVLMTQTPLSLPVSLGDQASISCRSGQSIVHSDGNTYLEWYLQRPGQSPRLLIYKVSNRFSGVPDRFSGSGSGTDFTLKISRVGAEDLGIYYCFQGSHIPWTFGGGTKLEVK
modifications: PR302341-1 VH, PR302341-2 VH, PR302341-3 VH, PR302341-4 VH,PR302341-5 VH, PR302341-6 VH, PR302341 VH; PR302341-13 VL, PR302341-14 VL, PR302341-15 VL, PR302341-16 VL,PR302341-17 VL, PR302341-18 VL, PR302341 VL

kdis [3]: <1e-07 s⁻¹ | kon [3]: 126000 M⁻¹ s⁻¹ | EC50 ([4]; central plus C-terminal region CRH peptide, NT-biotin (SEQ ID NO: 483), read-out: ELISA EC50 C-Ter-CRH (NT-Bion)): > 100 nM | EC50 ([4]; central region CRH peptide, CT-biotin (SEQ ID NO: 485), read-out: ELISA EC50 Central-CRH (CT-Bion)): > 100 nM | EC50 ([4]; central region CRH peptide, NT-biotin (SEQ ID NO: 484), read-out: ELISA EC50 Central-CRH (NT-Bion)): > 100 nM
B2: PR302309-18: humanized variant of Series 7 mAb PR302309; VH SEQ ID NO: 263, VL SEQ ID NO: 318 (antibody, V domains shown)
VH: QVQLVQSGAEVKKPGASVKVSCKASGYTFTNYGMNWVRQAPGQRLEWMGWINTYTGEPIYTDDFKGRVTITRDTSASTAYMELSSLRSEDTAVYYCARSTMITTGGVFAYWGQGTLVTVSS
VL: DVVMTQSPLSLPVTLGQPASISCRSSQTIVHSDGNTYLEWYQQRPGQSPRLLIYKVSNRFSGVPDRFSGSGSGTDFTLKISRVEAEDLGVYYCFQGSHVPWTFGGGTKVEIK
modifications: PR302309-15 VH, PR302309-18 VH; PR302309-17 VL, PR302309-18 VL, PR302309-19 VL, PR302309-2 VL,PR302309-8 VL

IC50 ([1]; CHO-CRE-mCRHR2 cells, 5 nM CRH): 2.74 nM | IC50 [2, 5]: 2.32 nM | kdis [3]: <1e-07 s⁻¹ | kon [3]: 14700 M⁻¹ s⁻¹
B3: PR302334-8: humanized variant of Series 9 mAb PR302334; VH SEQ ID NO: 273, VL SEQ ID NO: 332 (antibody, V domains shown)
VH: EVQLVESGGGLVQPGGSLRLSCAASGFTFSTYAMSWVRQAPGKGLEWVASIRSGGTTYYPDSVKGRFTISRDNSKNTLYLQMNSLRAEDTAVYYCTRGIDWGQGTTVTVSS
VL: EIVMTQSPATLSVSPGERATLSCKASQSVNNDVAWYQQKPGQAPRLLIYYASNRYTGIPARFSGSGSGTEFTLTISSLQSEDLAVYFCQQDYSSWTFGGGTKVEIK
modifications: PR302334-10 VH, PR302334-11 VH, PR302334-12 VH, PR302334-14 VH,PR302334-7 VH, PR302334-8 VH, PR302334-9 VH; PR302334-22 VL, PR302334-2 VL, PR302334-8 VL

IC50 ([1]; CHO-CRE-mCRHR2 cells, 5 nM CRH): 1.84 nM | IC50 [2, 5]: 1.65 nM | kdis [3]: <1e-07 s⁻¹ | kon [3]: 302000 M⁻¹ s⁻¹
B4: PR302334-27: humanized variant of Series 9 mAb PR302334; VH SEQ ID NO: 277, VL SEQ ID NO: 330 (antibody, V domains shown)
VH: B3 VH with T77S
VL: DIQMTQSSLSASVSLGDRVTITCKASQSVNNDVAWYQQKPGKAPRLLIYYASNRYTGVPSRFSGSGSGTDFTFTISSLQPEDLATYFCQQDYSSWTFGGGTKVEIK
modifications: PR302334-18 VH, PR302334-26 VH, PR302334-27 VH; PR302334-12 VL, PR302334-25 VL, PR302334-27 VL, PR302334-6 VL

IC50 ([1]; CHO-CRE-mCRHR2 cells, 5 nM CRH): 1.98 nM | IC50 [2, 5]: 2.08 nM | kdis [3]: <1e-07 s⁻¹ | kon [3]: 6840 M⁻¹ s⁻¹
B5: PR302334-10: humanized variant of Series 9 mAb PR302334; VH SEQ ID NO: 273, VL SEQ ID NO: 328 (antibody, V domains shown)
VH: B3 VH
VL: DIVMTQSPDSLAVSLGERATINCKASQSVNNDVAWYQQKPGQPPRLLIYYASNRYTGVPDRFSGSGSGTDFTLTISSLQAEDLAVYFCQQDYSSWTFGGGTKVEIK
modifications: PR302334-10 VH, PR302334-11 VH, PR302334-12 VH, PR302334-14 VH,PR302334-7 VH, PR302334-8 VH, PR302334-9 VH; PR302334-10 VL, PR302334-24 VL, PR302334-26 VL, PR302334-4 VL
